From patent US5928933A, “Process for the enzymatic resolution of N-(alkoxycarbonyl)-4-ketoproline alkyl esters or N-(alkoxycarbonyl)-4-hydroxyproline alkyl esters using Candida antarctica lipase B” (priority 1998, dated 1999)

T1: Candida antartica lipase fraction B (CALB) (Moesziomyces antarcticus, UniProt P41365)
T1 construct: purchased Boehringer Mannheim CHIRAZYME L-2
T1 sequence (P41365 26-342): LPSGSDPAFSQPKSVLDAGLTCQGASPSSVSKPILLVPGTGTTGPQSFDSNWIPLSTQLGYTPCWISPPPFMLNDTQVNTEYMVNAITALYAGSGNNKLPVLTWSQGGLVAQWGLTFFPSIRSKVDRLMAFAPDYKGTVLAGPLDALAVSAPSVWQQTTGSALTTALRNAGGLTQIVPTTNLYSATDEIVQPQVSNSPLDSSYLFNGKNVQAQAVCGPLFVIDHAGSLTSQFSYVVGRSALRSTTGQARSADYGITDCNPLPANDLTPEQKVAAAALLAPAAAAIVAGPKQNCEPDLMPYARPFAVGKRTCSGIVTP

B1: lipase (Chirazyme L7): commercial enzyme preparation, source porcine pancreas (protein, UniProt P00591 1-450, looked up)
Pancreatic triacylglycerol …: SEVCFPRLGCFSDDAPWAGIVQRPLKILPWSPKDVDTRFLLYTNQNQNNYQELVADPSTITNSNFRMDRKTRFIIHGFIDKGEEDWLSNICKNLFKVESVNCICVDWKGGSRTGYTQASQNIRIVGAEVAYFVEVLKSSLGYSPSNVHVIGHSLGSHAAGEAGRRTNGTIERITGLDPAEPCFQGTPELVRLDPSDAKFVDVIHTDAAPIIPNLGFGMSQTVGHLDFFPNGGKQMPGCQKNILSQIVDIDGIWEGTRDFVACNHLRSYKYYADSILNPDGFAGFPCDSYNVFTANKCFPCPSEGCPQMGHYADRFPGKTNGVSQVFYLNTGDASNFARWRYKVSVTLSGKKVTGHILVSLFGNEGNSRQYEIYKGTLQPDNTHSDEFDSDVEVGDLQKVKFIWYNNNVINPTLPRVGASKITVERNDGKVYDFCSQETVREEVLLTLNPC
B2: protease, trypsin bovine pancreas: commercial trypsin, source bovine pancreas (protein, UniProt P00760 24-246, looked up)
Serine protease 1: IVGGYTCGANTVPYQVSLNSGYHFCGGSLINSQWVVSAAHCYKSGIQVRLGEDNINVVEGNEQFISASKSIVHPSYNSNTLNNDIMLIKLKSAASLNSRVASISLPTSCASAGTQCLISGWGNTKSSGTSYPDVLKCLKAPILSDSSCKSAYPGQITSNMFCAGYLEGGKDSCQGDSGGPVVCSGKLQGIVSWGSGCAQKNKPGVYTKVCNYVSWIKQTIASN

Tests used:
Assay type in all cases: biochemical
[1] = target: T1, Candida antartica lipase fraction B (CALB); assay: Relative rates of hydrolysis of N-(alkoxycarbonyl)-trans-4-hydroxy-L-proline methyl esters by CALB; details: for time to complete hydrolysis of the methyl ester / initial reaction rate: 50 mM substrate, 3.0 mg/mL CALB, 25° C.; for time to complete hydrolysis of the methyl ester: 0.100M potassium phosphate pH 7.0; for initial reaction rate: pH 7.0
Procedure: A 2.0 mL aqueous solution containing 50 mM N-(methoxycarbonyl)-trans-4-hydroxy-L-proline methyl ester, or 50 mM N-(ethoxycarbonyl)-trans-4-hydroxy-L-proline methyl ester, or 50 mM N-(tert-butoxycarbonyl)-trans-4-hydroxy-L-proline methyl ester in 0.100M potassium phosphate (pH 7.0) and 3.0 mg/mL of Candida antartica lipase fraction B was mixed at 25° C. The reactions were analyzed by removal of 0.200 mL aliquots at pre-determined times and mixing the sample with an equivalent volume of 0.100M propionic acid (HPLC internal standard) in water, and filtering the resulting solution through a 10K molecular weight cut-off filter to remove the enzyme. The filtrate was then analyzed by high pressure liquid chromatography on a HPX-87H column (Bio-Rad, 30 cm×7.8 mm) to determine the percent conversion of the N-(alkoxycarbonyl)-trans-4-hydroxy-L-proline methyl ester. Complete hydrolysis of the methyl ester of the N-methoxy-, N-ethoxy-, and N-tert-butoxycarbonyl derivatives occurred in 5 h, 2 h, and 6 h, respectively, and the initial reaction rates were 5.7, 18.7, and 3.3 micromoles/h/mg enzyme catalyst, respectively.

[2] = Enzyme screens for resolution of racemic N-(acetyl)-4-keto-D,L-proline methyl ester (Example 7, comparative); details: 0.100M racemate, 5 h, 5.0 to 30 mg/mL enzyme, 25° C.; for conv. (percent conversion of the racemate): 0.20M sodium succinate pH 6.0; for % ee (enantiomeric excess of the D-isomer): pH 6.0
Procedure: (§1) An aqueous solution (1.0 mL) containing 0.100M racemic N-(acetyl)-4-keto-D,L-proline methyl ester in 0.20M sodium succinate (pH 6.0) was mixed with 5.0 to 30 mg/mL of commercial enzyme preparations (listed in the table below) at 25° C. […] The dichloromethane extract was then analyzed by chiral gas chromatography on a Chiraldex G-TA column (Advanced Separation Technologies, Inc., 50 m×0.32 mm ID) to determine the percent conversion of the racemate, and the enantiomeric excess of the N-(acetyl)-4-keto-D-proline methyl ester.

[3] = Enzyme screens for resolution of diastereomeric mixture CHDP(MEMC)/THLP(MEMC) (Example 9); details: 0.050M each isomer, 5 h or 24 h, 5.0 to 50 mg/mL enzyme, 25° C.; for conv. (percent conversion of the diastereomeric mixture): 0.100M potassium phosphate pH 7.0; for % de (diastereomeric excess of the D-isomer, CHDP(MEMC)): pH 7.0
Procedure: (§2) An aqueous solution (1.0 mL) containing 0.050M N-(methoxycarbonyl)-trans-4-hydroxy-L-proline methyl ester and 0.050M N-(methoxycarbonyl)-cis-4-hydroxy-D-proline methyl ester in 0.100M potassium phosphate (pH 7.0) was mixed with 5.0 to 50 mg/mL of commercial enzyme preparations (listed in the table below) at 25° C. The reactions were analyzed after 5 h or 24 h by removal of a 0.200 mL sample and mixing with an equivalent volume of 0.100M propionic acid (HPLC internal standard) in water. The resulting solution was filtered through a 10K molecular weight cut-off filter to remove the enzyme and the filtrate analyzed by high pressure liquid chromatography on a HPX-87H column (Bio-Rad, 30 cm×7.8 mm) to determine the percent conversion of each isomer of the diastereomeric mixture, and the diastereomeric excess of the N-(methoxycarbonyl)-cis-4-hydroxy-D-proline methyl ester.

[4] = Enzyme screens for resolution of racemic N-(methoxycarbonyl)-4,4-dimethoxy-D,L-proline methyl ester (Example 8, comparative); details: 0.100M racemate, 6 h or 17 h, 5.0 to 30 mg/mL enzyme, 25° C.; for conv. (percent conversion of the racemate): 0.25M potassium phosphate pH 7.0; for % ee (enantiomeric excess of the D-isomer): pH 7.0
Procedure: as §1, with “N-(methoxycarbonyl)-4,4-dimethoxy-D,L-proline” for “N-(acetyl)-4-keto-D,L-proline”, “0.25M potassium phosphate” for “0.20M sodium succinate”, “7.0)” for “6.0)”, “ethyl acetate” for “dichloromethane”, “N-(methoxycarbonyl)-4,4-dimethoxy-D-prolinemethyl” for “the N-(acetyl)-4-keto-D-proline methyl”

[5] = Enzyme screens for resolution of diastereomeric mixture CHLP(MEMC)/THLP(MEMC) (Example 13); details: 0.050M each isomer, 5 h, 5.0 to 50 mg/mL enzyme, 25° C.; for conv. (percent conversion of the diastereomeric mixture): 0.100M potassium phosphate pH 7.0; for % de (diastereomeric excess of the cis-L-isomer): pH 7.0
Procedure: as §2, with “solution” for “solution (1.0 mL)”, “N-(methoxycarbonyl)-cis-4-hydroxy-L-proline” for “N-(methoxycarbonyl)-cis-4-hydroxy-D-proline”, “5” for “5 h or 24”, “of” for “of each isomer of”

[6] = Enzyme screens for resolution of racemic N-(methoxycarbonyl)-4-keto-D,L-proline methyl ester (Example 1); details: 0.100M racemate, 5.0 to 50 mg/mL enzyme, 25° C., optimum; for conv. (percent conversion of the racemate): 0.20M sodium succinate pH 6.0, 5 h or 0.20M sodium acetate pH 5.0, 24 h; for % ee (enantiomeric excess of the D-isomer; L-isomer with porcine liver esterase): pH 6.0, 5 h or pH 5.0, 24 h
Procedure: An aqueous solution (1.0 mL) containing 0.100M racemic N-(methoxycarbonyl)-4-keto-D,L-proline methyl ester in either 0.20M sodium succinate (pH 6.0) or 0.20M sodium acetate (pH 5.0) was mixed with 5.0 to 50 mg/mL of commercial enzyme preparations (listed in the table below) at 25° C. […] The dichloromethane extract was then analyzed by chiral gas chromatography on a Chiraldex G-TA column (Advanced Separation Technologies, Inc., 50 m×0.32 mm ID) to determine the percent conversion of the racemate, and the enantiomeric excess of the N-(methoxycarbonyl)-4-keto-D-proline methyl ester.

Molecule	time to complete hydrolysis of the methyl ester [1] [h]	initial reaction rate [1]	initial rate of methyl ester hydrolysis, times faster than THLP(MEBOC) ([1]; CALB) [times]	initial rate of methyl ester hydrolysis, times faster than THLP(MEEC) as printed ([1]; CALB)	conv. (percent conversion of the racemate) [2] [%]	% ee (enantiomeric excess of the D-isomer) [2] [%]	conv. (percent conversion of the diastereomeric mixture) [3] [%]	% de (diastereomeric excess of the D-isomer, CHDP(MEMC)) [3] [%]	conv. (percent conversion of the racemate) [4] [%]	% ee (enantiomeric excess of the D-isomer) [4] [%]	conv. (percent conversion of the diastereomeric mixture) [5] [%]	% de (diastereomeric excess of the cis-L-isomer) [5] [%]	conv. (percent conversion of the racemate) [6] [%]	% ee (enantiomeric excess of the D-isomer; L-isomer with porcine liver esterase) [6] [%]
COC(=O)[C@@H]1C[C@@H](O)CN1C(=O)OC(C)(C)C [THLP(MEBOC), N-(tert-butoxycarbonyl)-trans-4-hydroxy-L-proline methyl ester]	6	3.3 micromoles/h/mg enzyme catalyst	–	–	–	–	–	–	–	–	–	–	–	–
CCOC(=O)N1C[C@H](O)C[C@H]1C(=O)OC [THLP(MEEC), N-(ethoxycarbonyl)-trans-4-hydroxy-L-proline methyl ester]	2	18.7 micromoles/h/mg enzyme catalyst	~1.7	approximately 3.3 times	–	–	–	–	–	–	–	–	–	–
B1	–	–	–	–	0	0	0	0	10	0	0	0	0	0
B2	–	–	–	–	0	0	0	0	0	0	0	0	0	0
